Measured values: US5508261A, “Analogs of glycoprotein hormones having altered receptor binding specificity and activity and methods for preparing and using same” (University of Medicine & Dentistry of New Jersey, priority 1995, dated 1996)

Legend:
[1] = tested on: rat luteal ovarian LH receptors; test: Inhibition of 125I-hCG binding to rat corpora luteal LH receptors (radioligand receptor assay); conditions: concentration of recombinant hCG for 50% inhibition of 125I-hCG binding divided by that of analog
Excerpt: (§1) The term "N.D." means not determined because concentrations of analog were not employed high enough to detect 50% inhibition.
(§2) An aliquot of the ligation mixture was taken and used to transform DH5-alpha strain E. coli. (obtained from Bethesda Research Laboratories, Gaithersburg, Md.). Plasmid DNAs from ampicillin-resistant DH5-alpha clones were screened by digestion with BglII (which is unique to vectors containing the cassette) and EcoRI (which cuts in the vector). Positive clones were identified by the presence of two fragments (approximately 0.8 Kbp and 2.9 Kbp). […] After the DNA was subjected to a dideoxy sequencing procedure to confirm that it encoded "GT" (Table 1), the plasmid DNA was then cotransfected into COS-7 cells (obtained from the American Type Culture Collection) along with pSVL-hCG-alpha, a pSVL-based plasmid encoding the human glycoprotein hormone alpha-subunit (10, 21), using a DEAE-dextran procedure (10).

[2] = tested on: bovine testes FSH receptors; test: Inhibition of 125I-hFSH binding to bovine testes tissue homogenates (radioligand receptor assay); conditions: concentration of recombinant hFSH for 50% inhibition of 125I-hFSH binding divided by that of analog
Excerpt: as §1, §2

B1: eCG: equine gonadotropin control (text calls the control eLH, equine lutropin) (protein)
chain: SRGPLRPLCRPINATLAAEKEACPICITFTTSICAGYCPSMVRVMPAALPAIPQPVCTYRELRFASIRLPGCPPGVDPMVSFPVALSCHCGPCQIKTTDCGVFRDQPLACAPQASSSSKDPPSQPLTSTSTPTPGASRRSSHPLPIKTS
[1]
  Activity at LH RECEPTORS relative to that of hCG: 0.53
[2]
  Activity at FSH RECEPTORS relative to that of hFSH: 0.18
